The values below come from US20100098693A1 (published 2010).

Experiment [1] concerns the target T1, human insulin receptor extracellular domain (HIR ECD), lectin affinity purified from transfected CHO cells (human, UniProt P06213 28-956, limits assumed).
T1 construct: extracellular domain; Secreted ECD purified on a wheat germ agglutinin column
The experiment is described as follows: ELISA, HIR ECD plated; printed as ED50 (second assay, run with the Gln-192 allozyme). On the technique in general: In an ELISA, binding on a coated surface is turned into a signal by an enzyme label.
Description: (§1) The affinity of the HIRMAb-PON1 fusion protein for the HIR extracellular domain (ECD) was determined with an ELISA using the lectin affinity purified HIR ECD. Chinese hamster ovary (CHO) cells permanently transfected with the HIR ECD were grown in serum free media, and the HIR ECD was purified with a wheat germ agglutinin affinity column. The HIR ECD (0.2 ug/well) was plated on high binding 96-well plates, and the binding of the HIRMAb, or the HIRMAb-PON1 fusion protein to the HIR ECD was detected with a biotinylated goat anti-human IgG (H+L) antibody (0.3 μg/well), and the avidin-biotinylated peroxidase detection system.

Experiment [2] deals with T1, human insulin receptor extracellular …. Description: ELISA, HIR ECD plated, detection with biotinylated anti-human IgG; printed as ED50 (assay of FIG. 4).
Description: as §1
The target is the same in experiment [3]. The experiment is described as follows: ELISA, HIR ECD plated, detection with biotinylated anti-human IgG; printed as ED50 (assay of FIG. 4, Arg-192 allozyme).
Description: as §1
Experiment [4] shares this target. Description: ELISA, HIR ECD plated; printed as ED50 (second assay, Gln-192 allozyme).
Description: as §1

B1: chimeric HIRMAb (chimeric monoclonal antibody to the human insulin receptor) (antibody, human IgG1, kappa)
heavy: not shown
light: DIQMTQSPSSLSASLGERVSLTCRASQDIGGNLYWLQQGPDGTIKRLIYATSSLDSGVPKRFSGSRSGSDYSLTISSLESEDFVDYYCLQYSSSPWTFGGGTKMEIKRTVAAPSVFIFPPSDEQLKSGTASVVCLLNNFYPREAKVQWKVDNALQSGNSQESVTEQDSKDSTYSLSSTLTLSKADYEKHKVYACEVTHQGLSSPVTKSFNRGEC
notes: Chimeric mouse/human IgG1 kappa; also called engineered HIRMAb
As for B1, the figures for the concentration giving a half-maximal response (EC50) in experiment [1] and in experiment [2] were 0.48 nM and 0.55 nM, respectively.

B2: HIRMAb-PON1 fusion protein, Arg-192 allozyme (PON1 fused to the carboxyl terminus of the HIRMAb heavy chain) (antibody)
heavy: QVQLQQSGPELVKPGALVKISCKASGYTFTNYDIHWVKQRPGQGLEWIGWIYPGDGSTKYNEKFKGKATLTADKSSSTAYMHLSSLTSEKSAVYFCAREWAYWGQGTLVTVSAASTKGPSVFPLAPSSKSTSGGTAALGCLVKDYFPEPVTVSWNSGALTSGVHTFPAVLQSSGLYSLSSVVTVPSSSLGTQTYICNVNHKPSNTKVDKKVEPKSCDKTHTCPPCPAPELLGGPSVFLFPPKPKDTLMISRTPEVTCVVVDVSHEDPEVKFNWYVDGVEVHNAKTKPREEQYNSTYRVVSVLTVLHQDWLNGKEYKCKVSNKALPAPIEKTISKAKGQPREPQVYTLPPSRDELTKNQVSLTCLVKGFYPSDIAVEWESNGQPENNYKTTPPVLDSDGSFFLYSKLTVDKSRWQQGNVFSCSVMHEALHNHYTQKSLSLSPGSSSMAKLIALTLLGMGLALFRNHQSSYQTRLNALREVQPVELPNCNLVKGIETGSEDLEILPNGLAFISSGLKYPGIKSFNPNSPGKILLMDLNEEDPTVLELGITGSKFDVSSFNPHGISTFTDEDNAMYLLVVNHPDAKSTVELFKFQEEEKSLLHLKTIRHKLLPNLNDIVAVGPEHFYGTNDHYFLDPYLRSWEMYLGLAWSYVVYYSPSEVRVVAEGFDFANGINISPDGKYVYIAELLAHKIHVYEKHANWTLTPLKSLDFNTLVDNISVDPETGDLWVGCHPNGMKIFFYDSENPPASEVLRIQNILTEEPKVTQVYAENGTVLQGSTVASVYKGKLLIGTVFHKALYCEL
light: B1 light
notes: IgG-enzyme fusion antibody
For B2, the midpoint of the response in experiment [3], the EC50, lay at 1.1 nM.

B3: HIRMAb-PON1 fusion protein, Gln-192 allozyme (antibody, human IgG1, kappa)
heavy: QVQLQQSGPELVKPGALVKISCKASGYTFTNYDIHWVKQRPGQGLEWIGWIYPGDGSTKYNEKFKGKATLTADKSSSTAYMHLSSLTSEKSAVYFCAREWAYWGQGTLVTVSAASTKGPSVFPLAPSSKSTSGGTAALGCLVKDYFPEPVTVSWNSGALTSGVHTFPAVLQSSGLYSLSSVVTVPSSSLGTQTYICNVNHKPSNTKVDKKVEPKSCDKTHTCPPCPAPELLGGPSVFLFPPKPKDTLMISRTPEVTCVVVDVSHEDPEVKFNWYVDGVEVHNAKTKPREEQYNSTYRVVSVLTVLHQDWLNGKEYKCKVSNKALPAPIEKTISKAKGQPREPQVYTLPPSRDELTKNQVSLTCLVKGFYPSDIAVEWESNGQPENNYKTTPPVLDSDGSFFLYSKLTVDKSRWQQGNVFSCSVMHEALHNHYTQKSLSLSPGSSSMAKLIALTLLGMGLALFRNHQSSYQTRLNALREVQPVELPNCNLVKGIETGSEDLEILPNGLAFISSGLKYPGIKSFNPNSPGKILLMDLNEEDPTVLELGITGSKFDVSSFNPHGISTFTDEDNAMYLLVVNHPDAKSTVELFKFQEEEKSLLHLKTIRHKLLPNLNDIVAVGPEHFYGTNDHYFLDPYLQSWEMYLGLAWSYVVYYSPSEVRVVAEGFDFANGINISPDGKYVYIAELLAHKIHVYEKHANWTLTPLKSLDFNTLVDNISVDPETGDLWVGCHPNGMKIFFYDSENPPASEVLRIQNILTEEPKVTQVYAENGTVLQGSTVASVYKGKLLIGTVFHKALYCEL
light: B1 light
The molecule B3 came in with an EC50 in experiment [4] of 0.96 nM.

The term EC50 denotes the concentration at which the effect is half-maximal. Low values mean a more potent agent, high ones a less potent agent.
